Laboratory results from patent US8349320.

Experiments:
[1] = target: human HVEM mutant E65A expressed on cells (human) (UniProt Q92956); experiment: flow cytometry saturation binding on 293T cells transfected with mutant HVEM
[2] = target: human HVEM mutant E76A expressed on cells (human) (UniProt Q92956); experiment: as above
[3] = target: human HVEM mutant K64A expressed on cells (human) (UniProt Q92956); experiment: as above
[4] = target: human HVEM mutant R113A expressed on cells (human) (UniProt Q92956); experiment: as above
[5] = target: human HVEM mutant R62A expressed on cells (human) (UniProt Q92956); experiment: as above
[6] = target: human HVEM mutant S58A expressed on cells (human) (UniProt Q92956); experiment: as above
[7] = target: human HVEM mutant Y47F expressed on cells (human) (UniProt Q92956); experiment: as above
[8] = target: human HVEM mutant Y61F expressed on cells (human) (UniProt Q92956); experiment: as above
[9] = target: human HVEM (wild type) expressed on cells (human) (UniProt Q92956); experiment: flow cytometry saturation binding on 293T cells transfected with wild type HVEM
Sequence of human HVEM (wild type) expressed on cells (human) (Q92956 39-283): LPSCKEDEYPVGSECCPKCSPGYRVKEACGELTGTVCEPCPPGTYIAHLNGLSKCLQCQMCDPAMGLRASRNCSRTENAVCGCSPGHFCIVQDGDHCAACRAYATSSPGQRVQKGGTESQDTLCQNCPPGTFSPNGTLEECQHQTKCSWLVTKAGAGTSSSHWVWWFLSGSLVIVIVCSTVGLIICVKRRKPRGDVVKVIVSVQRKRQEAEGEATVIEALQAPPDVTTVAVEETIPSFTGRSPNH

Sequence of human HVEM mutant Y47F expressed on cells (human) (Q92956 39-283 Y47F): as the sequence (Q92956 39-283) above, with Y9F counted along it
Sequence of human HVEM mutant Y61F expressed on cells (human) (Q92956 39-283 Y61F): as the sequence (Q92956 39-283) above, with Y23F counted along it
Sequence of human HVEM mutant S58A expressed on cells (human) (Q92956 39-283 S58A): as the sequence (Q92956 39-283) above, with S20A counted along it
Sequence of human HVEM mutant R113A expressed on cells (human) (Q92956 39-283 R113A): as the sequence (Q92956 39-283) above, with R75A counted along it
Sequence of human HVEM mutant R62A expressed on cells (human) (Q92956 39-283 R62A): as the sequence (Q92956 39-283) above, with R24A counted along it
Sequence of human HVEM mutant E76A expressed on cells (human) (Q92956 39-283 E76A): as the sequence (Q92956 39-283) above, with E38A counted along it
Sequence of human HVEM mutant K64A expressed on cells (human) (Q92956 39-283 K64A): as the sequence (Q92956 39-283) above, with K26A counted along it
Sequence of human HVEM mutant E65A expressed on cells (human) (Q92956 39-283 E65A): as the sequence (Q92956 39-283) above, with E27A counted along it

Kd [1]: 18 nM
Kd [2]: 22 nM
Kd [3]: 14 nM
Kd [4]: 18 nM
Kd [5]: 17 nM
Kd [6]: 19 nM
Kd [7]: 14 nM
Kd [8]: 17 nM
Kd [9]: 13 nM
B1: recombinant soluble human LIGHT truncated at G66 (ligand, from a related filing)
chain: GEMVTRLPDGPAGSWEQLIQERRSHEVNPAAHLTGANSSLTGSGGPLLWETQLGLAFLRGLSYHDGALVVTKAGYYYIYSKVQLGGVGCPLGLASTITHGLYKRTPRYPEELELLVSQQSPCGRATSSSRVWWDSSFLGGVVHLEAGEEVVVRVLDERLVRLRDGTRSYFGAFMV
